Reference: patent US20130323282A1

What was measured:
[1] = biological target: CD81 MBP-LEL113-201 (maltose-binding protein linked to the CD81 large extracellular loop, residues 113 to 201), dimeric form (UniProt P60033); assay: SPR; 1:1 model for dimer/trimer, two-state model for monomer
[2] = biological target: CD81 MBP-LEL113-201 (maltose-binding protein linked to the CD81 large extracellular loop, residues 113 to 201), dimeric form (UniProt P60033); assay: SPR; 1:1 Langmuir model

Sequence of UniProt P60033 (P60033 113-201 limits assumed): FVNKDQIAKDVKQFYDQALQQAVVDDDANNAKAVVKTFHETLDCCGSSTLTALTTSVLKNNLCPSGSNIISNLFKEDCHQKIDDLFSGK

| Substance | fold higher affinity than the monomeric protein [1] | fold higher affinity than the WT dimer [2] |
| --- | --- | --- |
| H77c WT E2661-his, dimer (from UniProt P27958 384-661) (ligand) | 10 fold |  |
| H77c WT E2661-his, trimer (putative) (from UniProt P27958 384-661) (ligand) | 10 fold |  |
| H77c ΔHVR1+2+3 E2661-his, dimer (from UniProt P27958 384-661) (ligand) | 10 fold | 2 fold |
| H77c ΔHVR1+2+3 E2661-his, trimer (putative) (from UniProt P27958 384-661) (ligand) | 10 fold |  |
